Laboratory results reported in PMC4516985, “Transactivation of human osteoprotegerin promoter by GATA-3”.

How the values were obtained:
GATA-3 [1] = target: T1, GATA-3 (Homo sapiens, UniProt P23771 1-443); experiment: competition; excess unlabeled mutant did not compete with biotin-G3RE2; protein source conflict as above; LightShift EMSA Optimization & Control Kit (Thermo 20148) per manufacturer, 6% DNA retardation gel; buffer, salt, pH and temperature not stated; details: protein: commercial; label: none
T1 sequence (P23771 whole entry): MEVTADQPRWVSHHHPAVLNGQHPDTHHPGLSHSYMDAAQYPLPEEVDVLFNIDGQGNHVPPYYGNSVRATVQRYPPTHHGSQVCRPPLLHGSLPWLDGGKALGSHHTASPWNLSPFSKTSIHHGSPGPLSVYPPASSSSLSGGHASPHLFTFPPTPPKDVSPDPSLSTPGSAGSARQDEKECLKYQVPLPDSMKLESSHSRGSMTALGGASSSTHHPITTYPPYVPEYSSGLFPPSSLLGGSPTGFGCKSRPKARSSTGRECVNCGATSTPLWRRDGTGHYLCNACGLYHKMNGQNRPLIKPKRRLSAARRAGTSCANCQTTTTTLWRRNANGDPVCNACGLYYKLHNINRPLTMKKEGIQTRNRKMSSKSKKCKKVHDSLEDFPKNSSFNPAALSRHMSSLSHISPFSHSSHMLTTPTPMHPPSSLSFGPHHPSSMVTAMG

GATA-3 [2] = target: T1, GATA-3; experiment: competition; excess unlabeled mutant did not compete with biotin-G3RE1; protein source conflict as above; LightShift EMSA Optimization & Control Kit (Thermo 20148) per manufacturer, 6% DNA retardation gel; buffer, salt, pH and temperature not stated; details: protein: commercial; label: none

B1: mutant G3RE2 probe (dsDNA)
DNA 1: TAACTACCCCAGAGTTGAAGGAGTGA
DNA 2: TCACTCCTTCAACTCTGGGGTAGTTA
B1: no binding (GATA-3 [1]).

B2: mutant G3RE1 probe (dsDNA)
DNA 1: TAGGAAGCTCCCATGGCAATAGCCCT
DNA 2: AGGGCTATTGCCATGGGAGCTTCCTA
B2: no binding (GATA-3 [2]).
